The series deals with T1, Fur (ferric uptake regulator) (Escherichia coli (strain of the fur …, UniProt P0A9A9 1-148)).
T1 sequence: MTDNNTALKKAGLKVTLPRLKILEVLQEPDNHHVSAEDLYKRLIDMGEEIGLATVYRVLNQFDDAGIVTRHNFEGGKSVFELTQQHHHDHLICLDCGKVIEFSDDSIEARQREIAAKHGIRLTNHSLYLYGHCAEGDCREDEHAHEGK
The series is described as follows: EMSA; dimer and tetramer complexes; EMSA as in cited ref 52, binding buffer not given; annealing buffer 10 mM Tris-HCl, 50 mM NaCl, 1 mM EDTA. The settings on record: protein: recombinant; tags: IMPACT system (intein tag, self-cleaved; no residual tag stated); chain copies: 4; label: Cy3 at 3' end of S3 as printed; blunt.

B1: fecIR Fur box, E. coli 83972 (dsDNA)
DNA 1: TCCAATTGTAATGATAACCATTCTCATATTAATATGACTACGTGA
DNA 2: TCACGTAGTCATATTAATATGAGAATGGTTATCATTACAATTGGA
As for B1, the binding result is recorded as “binds”.

Source of the values: article PMC2928814, “Host Imprints on Bacterial Genomes—Rapid, Divergent Evolution in Individual Patients”.
